Measurements from US20250326807A1 (published 2025).

Target: T1, Recombinantly expressed fused calprotectin (His6-linker-S100A9-linker-S100A8), product code B-RCAL, BÜHLMANN … (human, UniProt P06702 1-114; P05109 1-93)
T1 construct: Bought fusion protein; also called CP; human recombinant calprotectin
T1 sequence: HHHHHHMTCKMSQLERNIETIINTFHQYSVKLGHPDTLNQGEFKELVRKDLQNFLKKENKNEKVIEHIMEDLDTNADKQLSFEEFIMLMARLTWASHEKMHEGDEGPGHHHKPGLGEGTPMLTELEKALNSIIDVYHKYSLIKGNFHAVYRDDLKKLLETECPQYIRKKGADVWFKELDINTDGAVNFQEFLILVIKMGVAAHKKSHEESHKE
Assay: fluorescence polarization, 20 nM fluorescent peptide, calprotectin titrated
Protocol: The reaction mixture was incubated at 30° C. for 1 hr, and the completion of the reaction was assessed by LCMS. The reaction was stopped by addition of HCOOH (200 μL) and the cyclized peptide was lyophilized. The final purification was performed as before with a reversed-phase C18 column (X-bridge peptide BEH C18 5 μm, 300 Å, 10×250 mm, Waters) applying a flow rate of 6 mL/min and an appropriate linear gradient in 40 min. Fractions containing the desired peptide were lyophilized. The purity of the peptides was assessed by analysing around 20 μg of peptide by RP-HPLC (1260 HPLC system, Agilent) using a C18 column (ZORBAX 300SB-C18, 5 μm, 300 Å, 4.6×250 mm, Agilent). Peptides were run at a flow rate of 1 mL min⁻¹ with a linear gradient of 0-100% of solvent B over 15 min (A: 94.9% H₂O, 5% ACN and 0.1% TFA; B: 99.9% ACN and 0.1% TFA). The mass was determined by electrospray ionization mass spectrometry (ESI-MS) in positive ion mode on a single quadrupole liquid chromatography mass spectrometer (LCMS-2020, Shimadzu). […] Fluorescence anisotropy was measured on a microwell plate reader (Infinite M200Pro, Tecan), with a filter for excitation at 485 nm and emission at 535 nm. Dissociation constant (Kd) was calculated using the following equation on Prism 5 (GraphPad): […]

Kd: ~24 nM
B1: Peptide 3 Isomer 1 (RCPECVAFPMFQCHWYCG with cross-linked neighboring cysteines) (peptide)
peptide: RCPECVAFPMFQCHWYCG
modifications: neighboring cysteines cross-linked by chemical linkers (linker not named); N-terminal 5(6)-carboxyfluorescein; synthesised on rink amide AM resin
notes: Both pairs of neighboring cysteines bridged
